Assay results from patent publication US20080085859A1, “Drug Promoting Ceramide Transport, Base Sequence for Producing the Drug, Method of Measuring Activity of Promoting Ceramide Release and Method of Measuring Activity of Promoting Intermembrane Ceramide Transfer” (JAPAN SCIENCE AND TECHNOLOGY AGENCY, priority 2003, published 2008).

Experiments:
[1] = releasing reaction assay with other lipids as substrate (specificity); type: biochemical; settings: FIG. 15
Procedure: Hereinafter, the standard method will be described in detail, however, even if the described conditions are changed, a method of detecting ceramide release promotion activity having means for separating releasing ceramide by a centrifugation principally belongs to the present invention. The lipid membrane containing ceramide was prepared so that it contains 12.5 nCi (225 pmol) per sample of [palmitoyl-1-^14C]N-palmitoyl-D-ethyro-sphigosine (hereinafter, may be referred to as ^14C-ceramide) on the basis of the mixed lipid consisting of phosphatidylcholine and phosphatidylethanolamine derived from egg yolk at the ratio of 4:1 and its concentration becomes 2.5 mg/mL. This lipid membrane is required at the rate of 20 μL per one sample of the activity measurement. […]
hCERT protein or its recombinant protein described above as a protein sample to be targeted (under the standard conditions, the amount of protein corresponding to 450 picomoles, which is 2-fold molar equivalent amount of ceramide contained in the donating membrane was used) were messed up to 30 μL using the buffer 2 [50 mM Hepes-NaOH buffer (pH7.4) to which 100 mM NaCl and 0.5 mM EDTA have been added]. […] The activity for promoting ceramide release with hCERT was calculated by measuring the radioactive activity of ^14C in the supernatant fraction using a liquid scintillation counter. […]

LY-A2 cell = assay: content of phospholipids of cell; type: cell-based, Chinese hamster; settings: LY-A2/hCERT cell, FIG. 3(B)
Procedure: 3×10^6 cells per culture dish having the 150-mm diameter of CHO-K1 cell, LY-A2 cell, or LY-A2/hCERT cell was inoculated in 20 mL of F12/NBS medium, and cultured at 33° C. overnight. After it was washed twice in 10 mL of serum-free F12 medium, it was further cultured for 2 days in 20 mL of Nutridoma BO medium. After it was washed in PBS, the cells were collected by a method of scaping, suspended again in PBS, and lipid was extracted by a method described in Bligh et al (Can. J. Biochem. Physiol. 37, 911-917, 1959). The extracted lipid was separated using TLC whose development solvents were chloroform/methanol/acetic acid/H2O (volume ratio, 25:15:4:2). After the separated phospholipid on the TLC plate was colored by iodine vapor, the band of the respective separated phospholipid was scraped out from the plate. The scraped separated phospholipid was quantified by measuring phosphorus content by a method of Rouser et al (Lipids 1, 85-86, 1966).

SM synthase = SM synthase activity, C6-NBD-Cer substrate, membrane fractions; type: biochemical, Chinese hamster; settings: LY-A2/hCERT versus LY-A2 and CHO-K1 cells, FIG. 5
Procedure: The assay of SM synthase activity was carried out using C6—NBD-Cer as a substrate by a method of Hanada et al (Biochim. Biophys. Acta 1086, 151-156, 1991). However, the membrane fractions prepared respectively from CHO-K1 cell, LY-A2 cell and LY-A2/hCERT cell were used as an enzyme source.

B1: hCERT protein: human CERT protein having an amino acid sequence of SEQ ID NO:1 (protein)
chain: MSDNQSWNSSGSEEDPETESGPPVERCGVLSKWTNYIHGWQDRWVVLKNNALSYYKSEDETEYGCRGSICLSKAVITPHDFDECRFDISVNDSVWYLRAQDPDHRQQWIDAIEQHKTESGYGSESSLRRHGSMVSLVSGASGYSATSTSSFKKGHSLREKLAEMETFRDILCRQVDTLQKYFDACADAVSKDELQRDKVVEDDEDDFPTTRSDGDFLHSTNGNKEKLFPHVTPKGINGIDFKGEAITFKATTAGILATLSHCIELMVKREDSWQKRLDKETEKKRRTEEAYKNAMTELKKKSHFGGPDYEEGPNSLINEEEFFDAVEAALDRQDKIEEQSQSEKVRLHWPTSLPSGDAFSSVGTHRFVQKVEEMVQNHMTYSLQDVGGDANWQLVVEEGEMKVYRREVEENGIVLDPLKATHAVKGVTGHEVCNYFWNVDVRNDWETTIENFHVVETLADNAIIIYQTHKRVWPASQRDVLYLSVIRKIPALTENDPETWIVCNFSVDHDSAPLNNRCVRAKINVAMICQTLVSPPEGNQEISRDNILCKITYVANVNPGGWAPASVLRAVAKREYPKFLKRFTSYVQEKTAGKPILF
modifications: HeLa cell
- diacylglycerol releasing promotion, of the activity with respect to ceramide [1]: about 5%
- releasing reaction with respect to diacylglycerol, cholesterol, phosphatidylcholine, sphingomyelin, sphingosine ([1]; substrate changed from ceramide to other lipids): did not indicate a significant releasing reaction
- SM content (LY-A2 cell): recovered to the wild type level
- activity of the SM synthase (SM synthase): no difference
